Assay results: article PMC5023282, “A rapid fluorometric assay for the S-malonyltransacylase FabD and other sulfhydryl utilizing enzymes” (Journal of Biological Methods, 2016)

Substrate: CC(=O)SCCNC(=O)CCNC(=O)[C@H](O)C(C)(C)COP(=O)(O)OP(=O)(O)OC[C@H]1O[C@@H](n2cnc3c(N)ncnc32)[C@H](O)[C@@H]1OP(=O)(O)O
Assay: CPM fluorescence detection of released CoA-SH, initial rates
Format: biochemical, Escherichia coli
Conditions: malonyl-ACP 80 µM (about 40% pure; table note 75 µM), 20 mM phosphate, 50 mM KCl, 1 mg/ml BSA, pH 7.0, 30°C
Excerpt: CPM fluorescence detection of released CoA-SH, initial rates on FabH (β-ketoacyl-ACP synthase III; keto-acylsynthase III)

B1: FabH (β-ketoacyl-ACP synthase III; keto-acylsynthase III) (Escherichia coli K-12) (protein)
chain: MYTKIIGTGSYLPEQVRTNADLEKMVDTSDEWIVTRTGIRERHIAAPNETVSTMGFEAATRAIEMAGIEKDQIGLIVVATTSATHAFPSAACQIQSMLGIKGCPAFDVAAACAGFTYALSVADQYVKSGAVKYALVVGSDVLARTCDPTDRGTIIIFGDGAGAAVLAASEEPGIISTHLHADGSYGELLTLPNADRVNPENSIHLTMAGNEVFKVAVTELAHIVDETLAANNLDRSQLDWLVPHQANLRIISATAKKLGMSMDNVVVTLDRHGNTSAASVPCALDEAVRDGRIKPGQLVLLEAFGGGFTWGSALVRF
notes: purified by anion exchange, blue sepharose and S200 columns, as described previously; no tag mentioned
B1 showed a Km of 60 ± 20 µM.
